Assay results: article PMC6297349, “The ASCIZ-DYNLL1 axis promotes 53BP1-dependent non-homologous end joining and PARP inhibitor sensitivity” (Nature Communications, 2018)

Target: the molecule itself
Assay: SEC; equal concentrations of TALON IMAC eluate fractionated over a Superdex S200 column (Supplementary Fig. 2a)

B1: Smt3-His6-tagged wild type 53BP1 fragment (amino acids 1131–1292) (domain or fragment, UniProt Q12888 1131-1292, looked up)
chain: GRSTNKENPSKALIERPSQNNIGIQTMECSLRVPETVSAATQTIKNVCEQGTSTVDQNFGKQDATVQTERGSGEKPVSAPGDDTESLHSQGEEEFDMPQPPHGHVLHRHMRTIREVRTLVTRVITDVYYVDGTEVERKVTEETEEPIVECQECETEVSPSQT
notes: No cleavage of the tags is described; the IMAC eluate went onto the Superdex S200 column; also called LC8-OD; source: E. coli BL21(DE3), pET-17b, purified (TALON IMAC column)
Q: Does B1 bind?
A: binds
